Ends that are not written are not given here.
What was measured:
[1] = target: T1, human Neuropeptide Y Receptor Y2 (Homo sapiens, UniProt P49146); experiment: In vitro receptor potency: inhibition of forskolin-stimulated cAMP in hY2 CHO-K1 cells; type: cell-based; conditions: for Average ratio to PYY2-36 ± SEM: ratio of example compound EC50 to PYY2-36 EC50, cAMP, hY2 CHO-K1 cells (DiscoverX), 0.02 mM forskolin, 30 minutes
T1 construct: host or cells: CHO-K1
T1 sequence (P49146 1-381): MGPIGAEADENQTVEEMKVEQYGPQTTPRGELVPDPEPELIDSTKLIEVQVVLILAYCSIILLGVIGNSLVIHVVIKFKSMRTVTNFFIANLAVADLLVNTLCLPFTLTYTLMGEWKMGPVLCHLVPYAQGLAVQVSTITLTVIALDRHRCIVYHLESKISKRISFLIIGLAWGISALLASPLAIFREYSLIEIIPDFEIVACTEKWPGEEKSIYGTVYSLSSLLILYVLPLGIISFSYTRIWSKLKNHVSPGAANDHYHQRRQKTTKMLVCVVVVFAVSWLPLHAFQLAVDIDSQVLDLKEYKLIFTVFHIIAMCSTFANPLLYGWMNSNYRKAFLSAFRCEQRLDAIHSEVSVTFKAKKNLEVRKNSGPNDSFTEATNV
Method: (§1) DiscoverX® hY2 CHO-K1 cells (10,000 cells per well (96 well plate)) were resuspended in media containing 0.2 mM IBMX and 0.02 mM forskolin (which stimulates cAMP production) and test peptides at a range of concentrations, for 30 minutes. The reaction stopped by lysing the cells and cAMP quantified 60 minutes later using Cisbio cAMP dynamic 2 kit.
as §1, with “Ten thousand” for “DiscoverX® hY2 CHO-K1 cells (10,000”, “plate)” for “plate))”

[2] = system: overnight fasted male Wistar rats; experiment: Rat feeding experiment, single subcutaneous injection, food intake and body weight monitored for 6 days; type: in vivo; conditions: single subcutaneous injection of peptide in saline vs control saline; monitored for following 6 days; FIGS. 3A-3D, 4A-4D
Description: Animals were randomised into treatment groups, with stratification by body weight.

Average ratio to PYY2-36 ± SEM [1] | Substance | reductions in food intake and body weight [2] | ability to inhibit forskolin production (potency compared with Y242) ([1]; hY2 CHO-K1 cells, compared with previous generation compound Y242, FIG. 2)
1.7 ± 0.13 | Y1518: example PYY analogue peptide; sequence given in FIGS. 1A-1D (PIKPEAPGEGASPEELLHYYAALRHFLNHLTRQRY-NH2) [Peptide Y1518] |  | 
0.8 ± 0.16 | Pro-Ile-Lys-Pro-Glu-Ala-Pro-Gly-Glu-Gly-Ala-Ser-Pro-Glu-Glu-Leu-Leu-His-Tyr-Tyr-Ala-Ala-Leu-Arg-His-Phe-Leu-Asn-His-Val-Thr-Arg-Gln-Arg-Tyr-NH2 (PIKPEAPGEGASPEELLHYYAALRHFLNHVTRQRY-NH2) [Peptide Y1419] | a single initial dose is still active at 160 hours after administration | much more potent inhibitor than the previous generation of preferred compounds
0.9 ± 0.09 | Y1421: example PYY analogue peptide; sequence given in FIGS. 1A-1D (PIKPEAPGQGASPEELLHYYAALRHFLNHVTRQRY-NH2) [Peptide Y1421] |  | 
